The record followed here is patent publication US6495376.

In data set [1] the target is GST-WW-domain of Pin1 (UniProt Q13526).
Data set [2] deals with Pintide analogue WFYpSPFLE. Briefly: fluorescence anisotropy; low affinity site.
For data set [3], the target named is Pintide analogue WFYpSPFLE. Briefly: fluorescence anisotropy; high affinity site.
Data set [4] concerns the target Pintide analogue WFYpSPFLE. Kind of data set: fluorescence anisotropy, GST-WW-domain titrated on fluorescein-labeled peptide.
For data set [5], the target named is Cdc25 Peptide EQPLpTPVTDL. The description is as above.
Data set [6] concerns the target proteins of labeled HeLa cell lysates pretreated with Ser phosphatases (CIP, PP1 and PP2A). Kind of data set: pulldown from labeled HeLa lysates pretreated with Ser phosphatases.
Data set [7] deals with pT231 tau peptide (SEQ ID NO: 20). Kind of data set: ELISA on peptide.
Data set [8] deals with Amyloid Precursor Protein Peptide … (pT-668). Briefly: ELISA on peptide.
Data set [9] deals with pT231 tau peptide (SEQ ID NO: 20). Briefly: ELISA on peptide. This is another data set of the same source.
Data set [10] concerns the target Pintide analogue WFYpSPFLE. Briefly: fluorescence anisotropy, fluorescein labeled Pintide; high affinity site.
Data set [11] deals with Pintide analogue WFYpSPFLE. Briefly: fluorescence anisotropy (Table 2 prints 1.0 for the WW-domain).
Data set [12] has as its target tau peptide … (pT-231), SEQ ID NO: 29. Kind of data set: ELISA on peptide.

Like-named read-outs stand apart in the source and are kept apart here.

Sequence of Nedd4 WW-domain-1 (P46935 249-282): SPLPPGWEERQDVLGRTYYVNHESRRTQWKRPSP

Regarding “Cdc25C, in vitro translated (35S-Met), phosphorylated by Xenopus mitotic extracts”, in data set [1], the “dephosphorylation of the bound Cdc25C by calf intestine phosphatase (CIP)” value is “When mitotically phosphorylated Cdc25C was precipitated using GST beads containing Pin1 or its WW-domain, CIP failed to dephosphorylate Cdc25C”. Regarding “GST-Pin1 (from UniProt Q13526 1-163) (enzyme)”, the values for the Kd in data set [2] and in data set [3] were 13000 nM and 1200 nM, respectively.

In the case of “GST-Pin1^R14A (from UniProt Q13526 1-163) (enzyme)”, the Kd in data set [2] is 13500 nM; in data set [3] it was 2000 nM. As for “GST-Pin1^S16A (from UniProt Q13526 1-163) (enzyme)”, the Kd was 10500 nM in data set [2] and 1200 nM in data set [3].

Consider “GST-Pin1^S16E (from UniProt Q13526 1-163) (enzyme)”, for which, in data set [2], the Kd is 10500 nM. That is a double-digit micromolar value.

On to “GST-Pin1^S18E (from UniProt Q13526 1-163) (enzyme)”, for which the Kd came out at 12000 nM in data set [2] and 1000 nM in data set [3]. Take “GST-Pin1^W34A (from UniProt Q13526 1-163) (enzyme)”: the Kd in data set [2] amounted to 14000 nM. On to “GST-Pin1^Y23A (from UniProt P08515 1-218; Q13526 1-163) (enzyme)”, for which, in [2], the Kd was determined as 13500 nM. Turning to “GST-WW-domain of Pin1 (from UniProt Q13526 1-54)”, the Kd in [4] was 1000 nM; in data set [5] it was 2200 nM. In the case of “Nedd4 WW-domain-1 (from UniProt P46935 249-282)”, the fold reduction of binding against untreated lysates in data set [6] was 10 fold. Consider “Nedd4 WW-domain-2 (from UniProt P46935 405-438)”, for which the Kd in data set [4] was 10000 nM; in data set [5], 20000 nM. Moreover, the fold reduction of binding against untreated lysates in data set [6] was 10 fold. With “Pin1 (from UniProt Q13526 1-163) (enzyme)”, the results for the Binding (OD@405 nm) in data set [7] and in [8] were 1.46 OD@405 nm and 1.81 OD@405 nm, respectively. Moreover, the Kd in [7] turned out to be 40 nM; in [9], 25 nM; in data set [2], 11000 nM; in [3], 1200 nM; in data set [10] it was 1200 nM. In data set [2], “Pin1 PPIase domain (amino acids 47-163) (from UniProt Q13526 47-163) (enzyme)” had a Kd of 15000 nM. With “Pin1 WW-domain (amino acids 1-54) (from UniProt Q13526 1-54)”, the Kd in data set [11] was 1200 nM; in [3], 1000 nM.

“Pin1^R14A (from UniProt Q13526 1-163) (enzyme)” yielded a Binding (OD@405 nm) in [12] of 1.3 OD@405 nm. In data set [10], this substance came in with a Kd of 2000 nM.

In data set [10], “Pin1^S16A (from UniProt Q13526 1-163) (enzyme)” had a Kd of 1200 nM.

In data set [10], “Pin1^Y23F (from UniProt Q13526 1-163) (enzyme)” registered a Kd of 5000 nM.
